Data as given in the supplement of paper PMC10567573.
± gives the standard deviation.

Experiment: protein stability index of a GFP-peptide fusion (GPS, HEK-293T) (PSI 1-6); higher = more stable
[1] = treatment: DMSO, c terminus: a fixed tail appended
[2] = treatment: MLN4924 1 uM, 8 h, c terminus: a fixed tail appended
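Note: 24-mer peptide tiles fused after GFP, lentivirally expressed, FACS-sorted into six equal bins by GFP/DsRed ratio, decoded by Illumina sequencing, PSI is the read-weighted mean bin number.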

Sequence	protein stability index [1]	protein stability index [2]	protein stability index (treatment: DMSO, c terminus: native)	protein stability index (treatment: MLN4924 1 uM, 8 h, c terminus: native)
EESKEPKEEKQRRRCKPKKPTRRD [GNAS]	5.42 ± 0.11	5.44 ± 0.16	–	–
DSYTATGYGRAPGGLSLHDYKLLK [JUNB]	3.36 ± 0.24	3.39 ± 0.21	–	–
TVPSAATSQPTPSQHSAHTSSQP [CCDC6]	–	–	5.42 ± 0.23	5.33 ± 0.15
QGYTINVPWNQVGMRDADYIAAFL [HDAC6]	2.25 ± 0.22	2.46 ± 0.37	–	–
QRLKAVIVIQTYYRQWHAKIFVEN [IQUB]	2.83 ± 0.5	2.79 ± 0.79	–	–
PRLQQLLKTLEEGLEGLEDAPPVE [FANCE]	4.41 ± 0.16	4.34 ± 0.3	–	–
HPVPLSFEPVKSFFKGLVEAVEST [TRIM14]	2.6 ± 0.41	2.26 ± 0.42	–	–
TGTPLVAGSPIRHENAVQGSAVEV [ISL2]	4.48 ± 0.22	4.45 ± 0.18	–	–
HHKTYDPTYSDFCQFRPPVRVNDG [VDR]	3.38 ± 0.29	3.28 ± 0.16	–	–
TNTLTRIAENGVSERDSEAAKQNH [EHMT1]	5.41 ± 0.18	5.26 ± 0.29	–	–
ELEKNFSNFPRQYFALRKILKQLI [TRIM39]	2.58 ± 0.92	2.85 ± 1.3	–	–
QALKRKKRFEKQLTQIDGTLSTIE [CHMP4C]	4.05 ± 0.18	3.96 ± 0.23	–	–
SVLEQLELQEKQKNEKLISLQEQL [TAF7L]	4.24 ± 0.25	4.19 ± 0.3	–	–
TGNSLNEPEEPSEIPERRDSGVGA [DLC1]	5.58 ± 0.19	5.59 ± 0.26	–	–
PHTPQTPGQGGPASTPAQTAAGGQ [NR2F2]	5.3 ± 0.18	5.27 ± 0.23	–	–
YGCKVADIKKVNNFIREQDLYALK [LYSMD4]	2.27 ± 0.22	2.39 ± 0.21	–	–
TRRRAVGWWKRLFTLKEEKPKMYF [ARL6IP1]	2.25 ± 0.39	2.11 ± 0.32	–	–
KGPLVPFPNQKSEAAEPPKTPPSS [KMT5A]	5.25 ± 0.25	5.39 ± 0.21	–	–
EKNQVQLGKLEATIKSLSAELLKA [SASS6]	2.6 ± 0.45	2.54 ± 0.42	–	–
TFGDHHKDRRFAYGRSDVVVLCFS [RHOBTB1]	2.38 ± 0.53	2.43 ± 0.55	–	–
VIGFAKMIPGFRDLTSEDQIVLLK [VDR]	2.36 ± 0.51	2.42 ± 0.46	–	–
RQSSVTESTLYPNPYHQPYISRKY [TPRG1]	3.44 ± 0.31	3.67 ± 0.23	–	–

Sequence	protein stability index [1]	protein stability index [2]	protein stability index (treatment: DMSO, c terminus: native)	protein stability index (treatment: MLN4924 1 uM, 8 h, c terminus: native)
LDKVKDGGYRPAEDKIFPVPEEPP [ZBED1]	5.11 ± 0.18	5 ± 0.16	–	–
VEILDLNDNSPSFATPEREMRISE [PCDHGC5]	4.08 ± 0.31	4.2 ± 0.28	–	–
PAQVHSSLSAGEKPGFLAPRDLPK [RASAL3]	4.63 ± 0.34	4.77 ± 0.41	–	–
GGTLFSLEEGSSFWNQGLTWKVLF [CLCN6]	2.7 ± 0.46	2.6 ± 0.81	–	–
RGQVGLVPKNYVVVLSDGPALHPA [NCK2]	2.56 ± 0.29	2.43 ± 0.23	–	–
HEMVAHRHRQEVLCKEMVPLAEQT [ZSCAN9]	4.42 ± 0.2	4.41 ± 0.19	–	–
VMFKEPIEILPNVCYTACATLKGP [BTBD1]	2.12 ± 0.22	2.14 ± 0.26	–	–
IRESDPEQAPAPGEATAAPAPLCG [TBX6]	5.32 ± 0.53	5.31 ± 0.2	–	–
LELGSYIKDLSVVHSDLSSIVILD [CTDNEP1]	2.4 ± 0.13	2.48 ± 0.62	–	–
LFVIVPVLGPLVALIICYNWLHRR [MOG]	3.38 ± 0.68	3.11 ± 0.58	–	–
FAPFIVYYFIMACDQYSCALTGPV [DHCR7]	3.01 ± 0.077	3.2 ± 0.2	–	–
LRARNYEYLIRLFQEWEAHRNLSQ [TCF25]	2.13 ± 0.38	2.18 ± 0.35	–	–
EGLLRFSSWPFSIQDVVQPLTLQV [AUP1]	2.85 ± 0.76	2.98 ± 1	–	–
GATGECQNFLDPGYPLPKLDMNFS [ZNF449]	3.47 ± 0.2	3.67 ± 0.29	–	–
ILTRSWEEVSTLNAQIPELKSDLE [CD207]	3.56 ± 0.28	3.78 ± 0.16	–	–
YSYASTHRLMTDARRRVCHTEDFQ [CPXM2]	2.91 ± 0.37	3.44 ± 0.36	–	–
VAIFGPPNTYYEGGYFKARLKFPI [CDC34]	2.24 ± 0.41	2.58 ± 0.3	–	–
PPAELKAEPGFEPADCKRKEEAGA [CEBPB]	5.55 ± 0.23	5.68 ± 0.13	–	–
LKEAPVQDQGYKTLRLRENCVLSS [ZNF8]	3.88 ± 0.12	3.84 ± 0.1	–	–
AQAAVQGPVGTDFKPLNSTPATTT [ZNF207]	4.81 ± 0.24	4.89 ± 0.26	–	–
PETFWIQRAPQLPTWWPLPTQVPA [SPAG8]	2.42 ± 0.19	2.52 ± 0.15	–	–
PPPARGRGAPPPPPSRAPTAAPPP [WASL]	5.26 ± 0.11	5.14 ± 0.21	–	–

Sequence	protein stability index [1]	protein stability index [2]	protein stability index (treatment: DMSO, c terminus: native)	protein stability index (treatment: MLN4924 1 uM, 8 h, c terminus: native)
SPTFPALGIGMDSCVIPLRHGGLS [SEPHS2]	2.98 ± 0.15	2.98 ± 0.29	–	–
SWVTDMCKVGASSDPCGQLRPTLL [PNLIPRP1]	2.14 ± 0.38	2.34 ± 0.41	–	–
STKPSGSPLEEKHDQCKCENLIMF [MATN2]	3.3 ± 0.15	3.41 ± 0.099	–	–
PQGPPASPSCPEEALAATWEQPWA [PXN]	4.15 ± 0.39	3.96 ± 0.27	–	–
TKSPCESNNKKNDEMQEVPNRVLA [SPANXN3]	5.22 ± 0.2	5.33 ± 0.19	–	–
TVAGSLNDFSYLHTNCFELSIYVG [CPXM2]	2.79 ± 0.78	2.55 ± 0.7	–	–
YSSEMKTEDELRVRHLEEENRGIV [AUH]	4.78 ± 1	5.35 ± 0.86	–	–
PLHLAAQRGHYRVARILIDLCSDV [RIPK4]	2.42 ± 0.44	2.31 ± 0.19	–	–
HGPDLYPKFKKWCDDYFFIAHRGE [CPOX]	2 ± 0.15	2.1 ± 0.27	–	–
LQREKEFKAKEAAALGSRGSCSTE [ATP6V1G1]	5.12 ± 0.14	5.1 ± 0.48	–	–
LGAVAGLALGPILRLYKHNSQALL [MFSD9]	2.59 ± 1.1	2.43 ± 0.15	–	–
YQQLCIYWTKYYDFKNPIIEKYLR [OAS1]	2.92 ± 0.53	2.46 ± 0.7	–	–
VRKSRDKAKRRNQEMQQKLVELSA [CEBPD]	3.78 ± 0.34	3.72 ± 0.43	–	–
QSPDEKPLVALDTDSDDDFDMSRY [FAM219A]	5.44 ± 0.26	5.46 ± 0.23	–	–
PERRRSPGPAPGSPGELEEDLLLP [WEE1]	5.33 ± 0.28	5.37 ± 0.38	–	–
MNSLVSWQLLLFLCATHFGEPLEK [KISS1]	3.18 ± 0.67	3.07 ± 0.51	–	–
QMPQGNPLLLSHTLQELLARDTVQ [SNX8]	3.23 ± 0.086	3.15 ± 0.27	–	–
FIVDILQFLDIGPDVTRVGLLQYG [MATN2]	3.11 ± 0.51	2.94 ± 0.82	–	–
PQTPEPVEGRKHVDVQTELYLEEI [RSPH3]	3.78 ± 0.24	4 ± 0.58	–	–
VTLARQAGEVVCEAIKNEMNVMLK [IMPA1]	2.44 ± 0.4	2.44 ± 0.45	–	–
SPGSPVGEGTGSPPKWQIGEQEFE [ADD1]	5.35 ± 0.14	5.35 ± 0.25	–	–
